According to IntAct's records for PubMed 22916205:

B1: "Na(+)/H(+) exchange regulatory cofactor-like protein nrfl-1" (Caenorhabditis elegans), G5EDM4-1 (parent)
chain: MVHIPSDVTPPRLCVVEKLNGENEYGYNLHAEKGRGQFVGTVDPDSPAERGGLITGDRIFAVNGHSIIGENHKKVVERIKANPNRCEMLVISEEGAKWYNENNVQITLDLPNIERVSPMSKETPVFVPPPPPPTDAMPYLPRLAELNKGTPDQEFGFNLHAERGRGHFIGTVDAGGIGEKAGLEAGQRIVGVNGQLIYPTTGHKEVVALIKKDTMKTTLLVASEDVDKYHKDHNIAYSWDNVERVDTRPVINVETHHHHEEVSVPKSNGYDVPPLNPHSIQVNEEREISKMTTTTRTETITNSNSAYQYKESSTAYDAYATPPVDSNDLMDEVFGRVNLPGVTMSSHTEVLPPTDDISSVSSLSSHRESAVDVPVSHQYVPSYATESHQKHEQHSQTHHHHHQHQQPSPLSNGSSHGYAASSTSGYDDDDIYHLSAREARERLRMKNRKHHLHEMSLNEKYQLVSNM
partner: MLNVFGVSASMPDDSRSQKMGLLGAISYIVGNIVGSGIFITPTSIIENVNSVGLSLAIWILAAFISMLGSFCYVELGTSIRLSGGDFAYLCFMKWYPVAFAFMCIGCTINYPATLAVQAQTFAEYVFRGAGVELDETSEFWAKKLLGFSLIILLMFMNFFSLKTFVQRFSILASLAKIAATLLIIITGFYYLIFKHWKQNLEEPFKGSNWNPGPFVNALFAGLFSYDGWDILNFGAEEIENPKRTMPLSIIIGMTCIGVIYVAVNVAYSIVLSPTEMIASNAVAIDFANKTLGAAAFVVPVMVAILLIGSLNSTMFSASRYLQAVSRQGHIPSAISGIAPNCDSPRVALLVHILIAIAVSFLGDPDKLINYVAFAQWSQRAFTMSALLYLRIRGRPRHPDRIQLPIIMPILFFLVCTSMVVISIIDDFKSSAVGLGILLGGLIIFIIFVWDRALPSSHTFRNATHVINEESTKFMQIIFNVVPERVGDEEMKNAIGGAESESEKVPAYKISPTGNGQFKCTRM

Variants of: B1
Details: with aat6_caeel aat-6, Q22397

Variant	effect of a mutation on the interaction
MVHIPSDVTPPRLCVVEKLNGENEYAANLHAEKGRGQFVGTVDPDSPAERGGLITGDRIFAVNGHSIIGENHKKVVERIKANPNRCEMLVISEEGAKWYNENNVQITLDLPNIERVSPMSKETPVFVPPPPPPTDAMPYLPRLAELNKGTPDQEFGFNLHAERGRGHFIGTVDAGGIGEKAGLEAGQRIVGVNGQLIYPTTGHKEVVALIKKDTMKTTLLVASEDVDKYHKDHNIAYSWDNVERVDTRPVINVETHHHHEEVSVPKSNGYDVPPLNPHSIQVNEEREISKMTTTTRTETITNSNSAYQYKESSTAYDAYATPPVDSNDLMDEVFGRVNLPGVTMSSHTEVLPPTDDISSVSSLSSHRESAVDVPVSHQYVPSYATESHQKHEQHSQTHHHHHQHQQPSPLSNGSSHGYAASSTSGYDDDDIYHLSAREARERLRMKNRKHHLHEMSLNEKYQLVSNM [G26A;Y27A]	with no effect
MVHIPSDVTPPRLCVVEKLNGENEYAANLHAEKGRGQFVGTVDPDSPAERGGLITGDRIFAVNGHSIIGENHKKVVERIKANPNRCEMLVISEEGAKWYNENNVQITLDLPNIERVSPMSKETPVFVPPPPPPTDAMPYLPRLAELNKGTPDQAAGFNLHAERGRGHFIGTVDAGGIGEKAGLEAGQRIVGVNGQLIYPTTGHKEVVALIKKDTMKTTLLVASEDVDKYHKDHNIAYSWDNVERVDTRPVINVETHHHHEEVSVPKSNGYDVPPLNPHSIQVNEEREISKMTTTTRTETITNSNSAYQYKESSTAYDAYATPPVDSNDLMDEVFGRVNLPGVTMSSHTEVLPPTDDISSVSSLSSHRESAVDVPVSHQYVPSYATESHQKHEQHSQTHHHHHQHQQPSPLSNGSSHGYAASSTSGYDDDDIYHLSAREARERLRMKNRKHHLHEMSLNEKYQLVSNM [G26A;Y27A;E154A;F155A]	disrupting interaction strength
MVHIPSDVTPPRLCVVEKLNGENEYGYNLHAEKGRGQFVGTVDPDSPAERGGLITGDRIFAVNGHSIIGENHKKVVERIKANPNRCEMLVISEEGAKWYNENNVQITLDLPNIERVSPMSKETPVFVPPPPPPTDAMPYLPRLAELNKGTPDQAAGFNLHAERGRGHFIGTVDAGGIGEKAGLEAGQRIVGVNGQLIYPTTGHKEVVALIKKDTMKTTLLVASEDVDKYHKDHNIAYSWDNVERVDTRPVINVETHHHHEEVSVPKSNGYDVPPLNPHSIQVNEEREISKMTTTTRTETITNSNSAYQYKESSTAYDAYATPPVDSNDLMDEVFGRVNLPGVTMSSHTEVLPPTDDISSVSSLSSHRESAVDVPVSHQYVPSYATESHQKHEQHSQTHHHHHQHQQPSPLSNGSSHGYAASSTSGYDDDDIYHLSAREARERLRMKNRKHHLHEMSLNEKYQLVSNM [E154A;F155A]	decreasing interaction strength
